The results in this text go back to patent US20250075002A1.

For the assay, the target named is Human MUC1 (full length), on cells (human) (UniProt P15941). As to the kind of experiment: cell-based or functional assay.
Chain of Human MUC1 (full length), on cells (human) (P15941 24-1255 limits assumed): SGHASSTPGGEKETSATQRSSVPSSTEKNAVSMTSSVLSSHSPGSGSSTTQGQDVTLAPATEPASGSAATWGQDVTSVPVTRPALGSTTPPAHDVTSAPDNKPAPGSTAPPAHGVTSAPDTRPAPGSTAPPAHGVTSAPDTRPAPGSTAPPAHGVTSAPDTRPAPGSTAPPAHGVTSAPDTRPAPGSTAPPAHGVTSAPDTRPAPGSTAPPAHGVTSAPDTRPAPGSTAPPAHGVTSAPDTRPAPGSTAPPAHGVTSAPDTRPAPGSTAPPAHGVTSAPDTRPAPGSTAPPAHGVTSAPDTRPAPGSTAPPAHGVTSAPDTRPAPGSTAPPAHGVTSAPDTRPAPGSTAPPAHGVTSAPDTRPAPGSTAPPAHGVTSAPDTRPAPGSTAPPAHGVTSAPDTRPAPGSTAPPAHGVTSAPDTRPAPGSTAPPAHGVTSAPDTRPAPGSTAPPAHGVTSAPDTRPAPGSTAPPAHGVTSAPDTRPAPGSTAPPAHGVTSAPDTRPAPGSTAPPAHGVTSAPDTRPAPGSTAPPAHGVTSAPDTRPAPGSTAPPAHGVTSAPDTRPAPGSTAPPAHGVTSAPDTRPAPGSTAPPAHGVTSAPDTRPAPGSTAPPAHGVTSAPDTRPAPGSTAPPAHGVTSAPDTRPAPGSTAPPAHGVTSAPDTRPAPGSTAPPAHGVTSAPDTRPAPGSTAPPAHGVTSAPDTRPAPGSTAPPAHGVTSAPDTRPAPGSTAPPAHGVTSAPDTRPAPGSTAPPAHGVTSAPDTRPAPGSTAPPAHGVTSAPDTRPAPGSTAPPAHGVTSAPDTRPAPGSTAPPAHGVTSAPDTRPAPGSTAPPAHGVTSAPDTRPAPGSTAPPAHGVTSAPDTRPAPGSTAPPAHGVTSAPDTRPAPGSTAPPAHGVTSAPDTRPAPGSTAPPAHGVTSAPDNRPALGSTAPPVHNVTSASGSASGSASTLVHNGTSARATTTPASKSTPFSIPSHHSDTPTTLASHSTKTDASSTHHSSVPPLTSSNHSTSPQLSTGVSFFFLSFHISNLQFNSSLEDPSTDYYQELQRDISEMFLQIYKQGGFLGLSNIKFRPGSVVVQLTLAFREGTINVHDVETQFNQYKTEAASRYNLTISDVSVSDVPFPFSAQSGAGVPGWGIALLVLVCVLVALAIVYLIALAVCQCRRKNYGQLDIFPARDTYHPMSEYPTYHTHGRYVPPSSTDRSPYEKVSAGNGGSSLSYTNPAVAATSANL

B1: MUC1 5F3-hFc-AF (antibody, V domains shown)
VH: DVQVQESGPDLVKPSQSLSLTCTVTGHSITRGSSWHWIRQFPGNKLEWMGYIHYGGGTSYNPSLKSRISITRDTSKNQFFLQLNSVTTEDTATFFCARYSYDITYRWFFDVWGAGTTVIVSS
VL: DILLTQSPAILSVSPGERVSFSCRASQNIGTSIHWYQQRKNGSPRLLIKYASESISGIPSRFSGSGSGTDFTLSINSVESEDMADYYCQQNNNWPLTFGAGTKLELK
Consider B1, for which the Cell lysis activity EC50, T-47D/nanoluc in human whole blood amounted to 0.464 nM and the Cell lysis activity Emax, T-47D/nanoluc in human whole blood turned out to be 7.78%.

B2: huBG219P-E39-AF (antibody, human IgG1, V domains shown)
VH: EVQLLESGGGLVQPGGSLRLSCAASGFTFNDYIMSWVRQAPGKGLEWVATVSSGGDNTYYPDSVKGRFTISRDNSKNTLYLQMNSLRAEDTAVYYCTRYGGLGAMDYWGQGTLVTVSS
VL: DIQMTQSPSSLSASVGDRVTITCRASGNIHNYLTWYQQKPGKAPKLLIYNAKTLASGVPSRFSGSGSGTDFTLTISSLQPEDFATYYCQHFWSVPYTFGQGTKLEIK
modifications: afucosylated Fc glycan (-AF; expressed with 2F-peracetyl-fucose)
Molecule B2 registered an ADCC EC50, HCC827 (MUC1 medium), NK92mi/CD16A F158 effectors, w/o huIgG of 11.5 nM; an ADCC EC50, T-47D (MUC1 high), NK92mi/CD16A F158 effectors, w/o huIgG of 1.3 nM; an ADCC EC50, T-47D (MUC1 high), NK92mi/CD16A V158 effectors, w/o huIgG of 0.603 nM; an ADCC Emax, H358 (MUC1 low), NK92mi/CD16A F158 effectors, 10 mg/ml huIgG1 of 10.7%. This molecule also registered an ADCC Emax, H358 (MUC1 low), NK92mi/CD16A F158 effectors, w/o huIgG of 10.2%; an ADCC Emax, H358 (MUC1 low), NK92mi/CD16A V158 effectors, 10 mg/ml huIgG1 of 15.5%; an ADCC Emax, H358 (MUC1 low), NK92mi/CD16A V158 effectors, w/o huIgG of 15.6%; an ADCC Emax, HCC827 (MUC1 medium), NK92mi/CD16A F158 effectors, 10 mg/ml huIgG1 of 31%. The molecule also registered an ADCC Emax, HCC827 (MUC1 medium), NK92mi/CD16A F158 effectors, w/o huIgG of 36.8%; an ADCC Emax, HCC827 (MUC1 medium), NK92mi/CD16A V158 effectors, 10 mg/ml huIgG1 of 26.7%; an ADCC Emax, HCC827 (MUC1 medium), NK92mi/CD16A V158 effectors, w/o huIgG of 25%; an ADCC Emax, T-47D (MUC1 high), NK92mi/CD16A F158 effectors, 10 mg/ml huIgG1 of 25.7%. This molecule also yielded an ADCC Emax, T-47D (MUC1 high), NK92mi/CD16A F158 effectors, w/o huIgG of 48.2%; an ADCC Emax, T-47D (MUC1 high), NK92mi/CD16A V158 effectors, 10 mg/ml huIgG1 of 19.2%; an ADCC Emax, T-47D (MUC1 high), NK92mi/CD16A V158 effectors, w/o huIgG of 33.6%; a Cell lysis activity EC50, T-47D (MUC1 high) in human whole blood of 1.25 nM. The Cell lysis activity Emax, H358 (MUC1 low) in human whole blood came out at 8.6%; the Cell lysis activity Emax, HCC827 (MUC1 medium) in human whole blood came to 14.1%; the Cell lysis activity Emax, T-47D (MUC1 high) in human whole blood is 20.2%; the Phagocytosis (ADCP) EC50, T-47D, human M2 macrophages, w/o huIgG is 0.05 nM. The Phagocytosis (ADCP) Emax, T-47D, human M2 macrophages, 10 mg/ml huIgG1 was 17.6% and the Phagocytosis (ADCP) Emax, T-47D, human M2 macrophages, w/o huIgG is 56.4%.
